Patent publication US20230242592A1, “IDENTIFICATION OF […] PEPTIDES AND USES THEREOF” (priority 2020, published 2023)

What was measured:
[1] = molecular target: RBD-His (Sino Biological) (SARS-CoV-2) (UniProt P0DTC2); assay: BLI (summary of the working examples)
[2] = molecular target: RBD-His (Sino Biological) (SARS-CoV-2) (UniProt P0DTC2); assay: BLI steady-state, CR3022 on anti-human IgG Fc tips, RBD-His as analyte

Substance: neutralizing monoclonal IgG antibody against the SARS-CoV-2 spike glycoprotein (CR3022, antibodies-online)
- Kd [1]: 6 nM
- Kd [2]: 8.6 nM
